The source of these data is the supplement of paper PMC9112550, “Optimization of the antimicrobial peptide Bac7 by deep mutational scanning” (BMC Biology, 2022).
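Further: peptides expressed intracellularly from a pBAD plasmid library in pooled LB shake-flask culture, induced with 0.3% L-arabinose, DNA abundance read by NGS, three biological replicates, DESeq2 with apeglm shrinkage.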

The subject of this data set is Escherichia coli TOP10. Put plainly: shrunken log2 fold change of peptide-encoding DNA abundance (4.5 h post-induction vs induction); higher = less antimicrobial activity (less host growth inhibition). The note with it: time post-induction: 4.5 h; library: site-saturation at positions 5, 18, 19, 20.
RRIRKRPPRLPRPRPRPMINPRP: the “shrunken log2 fold change” value was found to be 0.148.

Take RRIRERPPRLPRPRPRPLRMPRP: the “shrunken log2 fold change” value turned out to be 0.167.

With RRIRSRPPRLPRPRPRPRDQPRP, the “shrunken log2 fold change” value was -0.0856.

As to RRIRLRPPRLPRPRPRPRDYPRP, the “shrunken log2 fold change” value is -0.00546.

Regarding RRIRHRPPRLPRPRPRPARPPRP, the “shrunken log2 fold change” value was determined as 0.502.

On to RRIRPRPPRLPRPRPRPSGKPRP, for which the “shrunken log2 fold change” value was -0.247.

As for RRIRPRPPRLPRPRPRPCYLPRP, the “shrunken log2 fold change” value is -0.958.

Take RRIRRRPPRLPRPRPRPTNTPRP: the “shrunken log2 fold change” value worked out at 0.142.

For RRIRYRPPRLPRPRPRPEIVPRP, the “shrunken log2 fold change” value is -0.00224.

With RRIRVRPPRLPRPRPRPDDIPRP, the “shrunken log2 fold change” value is -0.442.

As for RRIRARPPRLPRPRPRPMYFPRP, the “shrunken log2 fold change” value is -0.154.

Take RRIRKRPPRLPRPRPRPDVEPRP: the “shrunken log2 fold change” value is 0.962.

Take RRIRNRPPRLPRPRPRPNDGPRP: the “shrunken log2 fold change” value is -0.00674.

Consider RRIRMRPPRLPRPRPRPAYNPRP, for which the “shrunken log2 fold change” value was -0.236.

Regarding RRIRSRPPRLPRPRPRPFDFPRP, the “shrunken log2 fold change” value was -0.241.

Turning to RRIRFRPPRLPRPRPRPYNAPRP, the “shrunken log2 fold change” value was -0.714.

For RRIRARPPRLPRPRPRPERSPRP, the “shrunken log2 fold change” value came to 0.264.

RRIRDRPPRLPRPRPRPASQPRP: the “shrunken log2 fold change” value came out at 0.0836.

Consider RRIRKRPPRLPRPRPRPFLQPRP, for which the “shrunken log2 fold change” value was -0.0765.

Consider RRIRSRPPRLPRPRPRPWWWPRP, for which the “shrunken log2 fold change” value turned out to be 0.0716.

Take RRIRDRPPRLPRPRPRPDHWPRP: the “shrunken log2 fold change” value turned out to be 0.0704.

RRIRKRPPRLPRPRPRPYRLPRP: the “shrunken log2 fold change” value is -0.212.

On to RRIRRRPPRLPRPRPRPCYHPRP, for which the “shrunken log2 fold change” value is -0.169.

On to RRIRIRPPRLPRPRPRPRPVPRP, for which the “shrunken log2 fold change” value came to 0.371.

As for RRIRARPPRLPRPRPRPCSLPRP, the “shrunken log2 fold change” value was -0.272.

For RRIRIRPPRLPRPRPRPSGYPRP, the “shrunken log2 fold change” value amounted to 0.00435.

In the case of RRIRHRPPRLPRPRPRPHLGPRP, the “shrunken log2 fold change” value worked out at 0.0478.

On to RRIRKRPPRLPRPRPRPKDVPRP, for which the “shrunken log2 fold change” value is -0.018.

Regarding RRIRCRPPRLPRPRPRPEKMPRP, the “shrunken log2 fold change” value came out at 0.0239.

Regarding RRIRRRPPRLPRPRPRPFIDPRP, the “shrunken log2 fold change” value is -0.162.

For the sequence RRIRMRPPRLPRPRPRPQKQPRP, the “shrunken log2 fold change” value came out at 0.0157.

As to RRIRGRPPRLPRPRPRPLPMPRP, the “shrunken log2 fold change” value is 0.666.

In the case of RRIRHRPPRLPRPRPRPVCDPRP, the “shrunken log2 fold change” value was -0.41.

RRIRGRPPRLPRPRPRPTHMPRP: the “shrunken log2 fold change” value came to 0.745.

Take RRIRSRPPRLPRPRPRPWGFPRP: the “shrunken log2 fold change” value was -0.0589.

As for RRIRWRPPRLPRPRPRPFVEPRP, the “shrunken log2 fold change” value is -0.436.

With RRIRIRPPRLPRPRPRPGVGPRP, the “shrunken log2 fold change” value worked out at 0.435.

Consider RRIRERPPRLPRPRPRPKAAPRP, for which the “shrunken log2 fold change” value amounted to 0.0382.

As to RRIRQRPPRLPRPRPRPHSTPRP, the “shrunken log2 fold change” value is -0.149.

As for RRIRYRPPRLPRPRPRPCFNPRP, the “shrunken log2 fold change” value was -0.262.

For RRIRVRPPRLPRPRPRPNGRPRP, the “shrunken log2 fold change” value worked out at 0.222.

For the sequence RRIRIRPPRLPRPRPRPLCMPRP, the “shrunken log2 fold change” value is -0.964.

In the case of RRIRFRPPRLPRPRPRPTPRPRP, the “shrunken log2 fold change” value was 0.803.

Regarding RRIRWRPPRLPRPRPRPHHYPRP, the “shrunken log2 fold change” value is -0.952.

For RRIRSRPPRLPRPRPRPVPDPRP, the “shrunken log2 fold change” value is -0.0298.

Take RRIRHRPPRLPRPRPRPLQNPRP: the “shrunken log2 fold change” value was -0.00367.

As to RRIRGRPPRLPRPRPRPHKDPRP, the “shrunken log2 fold change” value stood at 0.11.

As for RRIRKRPPRLPRPRPRPVEKPRP, the “shrunken log2 fold change” value is -0.0124.

Regarding RRIRRRPPRLPRPRPRPRCFPRP, the “shrunken log2 fold change” value is 0.474.

Regarding RRIRDRPPRLPRPRPRPRRMPRP, the “shrunken log2 fold change” value is -0.152.

RRIRKRPPRLPRPRPRPVAWPRP: the “shrunken log2 fold change” value is 0.315.

For RRIRFRPPRLPRPRPRPVRNPRP, the “shrunken log2 fold change” value stood at 0.077.

As for RRIRNRPPRLPRPRPRPTPCPRP, the “shrunken log2 fold change” value came to 0.043.

As for RRIRARPPRLPRPRPRPMAMPRP, the “shrunken log2 fold change” value was 0.282.

Regarding RRIRSRPPRLPRPRPRPSCSPRP, the “shrunken log2 fold change” value was -0.231.

Take RRIRGRPPRLPRPRPRPHGRPRP: the “shrunken log2 fold change” value worked out at 0.182.

In the case of RRIRFRPPRLPRPRPRPRQQPRP, the “shrunken log2 fold change” value stood at 0.0599.

RRIRPRPPRLPRPRPRPPIIPRP: the “shrunken log2 fold change” value is -0.231.

Turning to RRIRRRPPRLPRPRPRPQDQPRP, the “shrunken log2 fold change” value was 0.168.

Turning to RRIRQRPPRLPRPRPRPSTWPRP, the “shrunken log2 fold change” value is -0.116.

Turning to RRIRARPPRLPRPRPRPCMMPRP, the “shrunken log2 fold change” value is -0.0864.

Regarding RRIRIRPPRLPRPRPRPWATPRP, the “shrunken log2 fold change” value was determined as 0.16.
